Laboratory results taken from US20170291948A1.
Changes are numbered by the printed parent chain.

B1: 1A03 scFv antibody fragment (scFv, part only; not given: linker, domain order, His and HA tags, V domains shown, not shown: another chain or arm of the molecule; large carriers; small tags and cut ends)
VH: EVQLLESGGGLVQPGGSLRLSCAASGFTFSSYYMSWVRQAPGKGLEWVSAISPGSSNKYYADSVQGRFTISRDNSKNTLYLQMNSLRAEDTAVYYCARRKKSFDYWGQGTLVTVSS
VL: QSVLTQPPSASGTPGQRVTISCSGPSSNIGNNDVSWYQQLPGTAPKLLIYSDNNRPSGVPDRFSGSKSGTSASLAISGLRSEDEADYYCGAWVASLSAYVFGGGTKLTVL
B2: 3H10 scFv antibody fragment (scFv, part only; not given: linker, domain order, His and HA tags, V domains shown, not shown: another chain or arm of the molecule; large carriers; small tags and cut ends)
VH: B1 VH with Q65K, K101Y, S102M
VL: B1 VL with S23T, P25S, S35Y, N53S, G90A, A91S, V93D, A94S, A98G

What was measured:
[1] = target: human NRP1 protein (human) (UniProt O14786); experiment: SPR, Biacore T100
[2] = target: NRP1 expressed on the surface of cancer cells (NRP1-overexpressing patient-derived cells; U87MG glioblastoma cell line) (human) (UniProt O14786); experiment: cell-based or functional assay
Chain of NRP1 expressed on the surface of cancer cells (NRP1-overexpressing patient-derived cells; U87MG glioblastoma cell line) (human) (O14786 22-923): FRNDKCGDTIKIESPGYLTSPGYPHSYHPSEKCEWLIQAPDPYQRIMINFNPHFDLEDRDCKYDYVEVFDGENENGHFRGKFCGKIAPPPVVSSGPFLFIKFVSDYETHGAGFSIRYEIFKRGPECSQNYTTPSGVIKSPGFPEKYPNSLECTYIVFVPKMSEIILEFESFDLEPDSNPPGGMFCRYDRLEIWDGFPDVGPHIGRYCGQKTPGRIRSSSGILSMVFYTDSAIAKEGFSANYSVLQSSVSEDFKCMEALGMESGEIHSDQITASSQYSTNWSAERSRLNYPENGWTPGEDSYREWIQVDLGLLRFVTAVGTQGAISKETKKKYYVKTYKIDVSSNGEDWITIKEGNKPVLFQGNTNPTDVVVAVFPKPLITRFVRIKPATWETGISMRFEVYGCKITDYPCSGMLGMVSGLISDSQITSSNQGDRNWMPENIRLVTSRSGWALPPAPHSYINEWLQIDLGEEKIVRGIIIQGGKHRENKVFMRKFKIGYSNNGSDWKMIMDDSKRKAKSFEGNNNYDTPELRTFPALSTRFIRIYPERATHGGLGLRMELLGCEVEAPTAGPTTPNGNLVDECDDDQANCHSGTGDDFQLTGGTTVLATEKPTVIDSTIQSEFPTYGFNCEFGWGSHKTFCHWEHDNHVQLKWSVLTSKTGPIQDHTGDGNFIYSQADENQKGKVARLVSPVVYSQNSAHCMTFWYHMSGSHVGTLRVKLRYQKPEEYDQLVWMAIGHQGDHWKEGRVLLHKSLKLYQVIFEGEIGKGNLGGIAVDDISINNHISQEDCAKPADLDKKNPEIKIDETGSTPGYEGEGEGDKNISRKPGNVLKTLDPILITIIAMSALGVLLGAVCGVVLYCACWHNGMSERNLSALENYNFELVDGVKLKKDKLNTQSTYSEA

Chain of human NRP1 protein (human) (O14786 other isoform, or with tags, fused parts or gaps limits assumed): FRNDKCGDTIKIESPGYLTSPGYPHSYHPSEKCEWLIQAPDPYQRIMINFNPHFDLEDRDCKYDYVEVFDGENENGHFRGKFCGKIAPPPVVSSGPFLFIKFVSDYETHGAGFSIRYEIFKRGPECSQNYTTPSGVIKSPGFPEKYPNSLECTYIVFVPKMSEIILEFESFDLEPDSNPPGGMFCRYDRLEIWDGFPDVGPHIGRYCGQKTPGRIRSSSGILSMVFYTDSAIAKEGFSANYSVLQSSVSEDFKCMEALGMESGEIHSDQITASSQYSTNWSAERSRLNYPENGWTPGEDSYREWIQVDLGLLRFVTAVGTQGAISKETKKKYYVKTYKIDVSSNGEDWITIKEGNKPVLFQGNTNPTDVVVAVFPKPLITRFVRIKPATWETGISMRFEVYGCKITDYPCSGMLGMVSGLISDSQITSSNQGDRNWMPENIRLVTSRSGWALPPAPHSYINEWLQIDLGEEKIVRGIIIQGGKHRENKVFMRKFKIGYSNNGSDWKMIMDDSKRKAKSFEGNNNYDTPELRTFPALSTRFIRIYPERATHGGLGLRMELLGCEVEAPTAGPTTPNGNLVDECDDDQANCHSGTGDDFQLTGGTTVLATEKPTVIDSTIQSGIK

Binder | Kd [1] | cell migration of U87MG cells (transwell), untreated control = 100% [2]
B1 | 89.4 nM | 41%
B2 | 295 nM | 46%
